Measured values reported in the RNAGym collection of RNA variant scans (doi:10.7554/elife.90254).

B1: LINE1-full (parent)
chain: UACGUAGGUGGUUUUCCCCUGAUAGUGCUAAGGGGGCCUGGAAGUUUGGACUGGGCAGAGCUCAACACAGCGUGGCAAAGUGGCUGUGGCUAGACUGCCUCUCUGGAUUCCUCGUCACUCAGCAGGGCAUCUCUGAGAGAAAUGCC

Variants of: B1
Assay: self-cleavage, relative activity (ratio to wild type); higher = more cleavage; in vitro, sequencing; the parent is a self-cleaving ribozyme

Going from UACGUAGGUGGUUUUCCCCUGAUAGUGCUAAGGGGGCCAGGACGUUUGGACUGGGCAGAGCUCAACACAGCGUGGCAAAGUGGCUGUGGCUAGACUGCCUCUCUGGAUUCCUCGUCACUCAGCAGGGCAUCUCUGAGAGAAAUGCC to UACGUAGGUGGUUUUCCCCUGAUAGUGCUAAGGGGGCCAGGAGGUUUGGACUGGGCAGAGCUCAACACAGCGUGGCAAAGUGGCUGUGGCUAGACUGCCUCUCUGGAUUCCUCGUCACUCAGCAGGGCAUCUCUGAGAGAAAUGCC, the self-cleavage falls from 0.66 to 0.63.

Going from UACGUAGGUGGUUUUCCCCUGAUAGUGCUAAGGGGGCUUGGAAGUUUGGACUGGGCAGAGGUCAACACAGCGUGGCAAAGUGGCUGUGGCUAGACUGCCUCUCUGGAUUCCUCGUCACUCAGCAGGGCAUCUCUGAGAGAAAUGCC to UACGUAGGUGGUUUUCCCCUGAUAGUGCUAAGGGGGCCAGGAAGUUUGGACUGGGCAGAGCUCAACACAGCGUGGCAAAGUGGCUGUGGCUAGACUGCCUCUCUGGAUUCCUCGUCACUCAGCUGGGCAUCUCUGAGAGAAAUGCC, the self-cleavage rises from 0.02 to 1.61.

First: UACGUAGGUGGUUUUCCCCUGAUAGUGCUAAGGGGGCUUGGAAGUUGGGACUGGGCAGAGCUCAACACAGCGUGGCAAAGUGGCUGUGGCUAGACUGCCUCUCUGGAUUCCUCGUCACUCAGCAGGGCAUCUCUGAGAGAAAUGCC
Second: UACGUAGGUGGUUUUCCCCUGAUAGUGCUAAGGGGGCCAGGAAGUUUGGACUGGGCAGAGCUCAACACAGCGUGGCAAAGUGGCUGUGGCUAGACUGCCUCUCUGGAUUCCUCGUCACUCUGCAGGGCAUCUCUGAGAGAAAUGCC
The self-cleavage of the first is lower: 0.78 for the first, 1.58 for the second.

First: UACGUAGGUGGUUUUCCCCUGAUAGUGCUAAGGGGGCCAGGAAGUUUGGACUGGGCAGAGCUCAACACAGCGUGGCAAAGUGGCUGUGGCUAGACUGCCUCUCUGGAUUCCUCGUCACUCGGCAGGGCAUCUCUGAGAGAAAUGCC
Second: UACGUAGGUGGUUUUCCCCUGAUAGUGCUAAGGGGGCUUGGAAGUUUGGACUGGGCAGAGCUCAACACAGCGUGGCAAAGUGGCUGUGGCUAGACUGCCUCUCUGGAUUCCUCGUCACUCAGCAGGGCAUCUCUGAGAGAAAUACC
The self-cleavage of the first is higher: 1.69 for the first, 1.36 for the second.

First: UACGUAGGUGGUUUUCCCCUGAUAGUGCUAAGGGGGCUUGGAAGUCUGGACUGGGCAGAGCUCAACACAGCGUGGCAAAGUGGCUGUGGCUAGACUGCCUCUCUGGAUUCCUCGUCACUCAGCAGGGCAUCUCUGAGAGAAAUGCC
Second: UACGUAGGUGGUUUUCCCCUGAUAGUGCUAAGGGGGCCAGGAAGUUUGGACUGGGCAGAGCUCAACACAGCGUGGCUAAGUGGCUGUGGCUAGACUGCCUCUCUGGAUUCCUCGUCACUCAGCAGGGCAUCUCUGAGAGAAAUGCC
The self-cleavage of the first is higher: 1.51 for the first, 1.38 for the second.

Compared with UACGUAGGUGGUUUUCCCCUGAUAGUGCUAAGGGGGCUUGGAAGUUUGGACUGGGCAGAGCUCAACACAGCGUGGCAAAGUGGCUGCGGCUAGACUGCCUCUCUGGAUUCCUCGUCACUCAGCAGGGCAUCUCUGAGAGAAAUGCC, UACGUAGGUGGUUUUCCCCUGAUAGUGCUAAGGGGGCCAGGAAGUUUGGACUGGGCAGAGCUCGACACAGCGUGGCAAAGUGGCUGUGGCUAGACUGCCUCUCUGGAUUCCUCGUCACUCAGCAGGGCAUCUCUGAGAGAAAUGCC is higher in self-cleavage: 0.06 for the first, 0.21 for the second.

Going from UACGUAGGUGGUUUUCCCCUGAUAGUGCUAAGGGGGCCAGGAAGUUUGGACUGGGCAGAGCUCUACACAGCGUGGCAAAGUGGCUGUGGCUAGACUGCCUCUCUGGAUUCCUCGUCACUCAGCAGGGCAUCUCUGAGAGAAAUGCC to UACGUAGGUGGUUUUCCCCUGAUAGUGCUAAGGGGGCCAGGAAGUUUGGACUGGGCAGAGCUCAACACAGCGUGGCAAAGUGGCUGUGGCUAGACUGCCUCUCUGGAUUCCUCGUCACUCAGCAGGGCAUCUCUGUGAGAAAUGCC, the self-cleavage rises from 0.47 to 1.52.

Going from UACGUAGGUGGUUUUCCCCUGAUAGUGCUAAGGGGGCCAGGAAGUUUGGACUGGGCAGAGCUCAACACAGCGUGGCAAAGUGGCUGUGGCUAGACUGCCUCUCUGGAUUCCUCGUCACUCAGCAGGGCAUCUCUGGGAGAAAUGCC to UACGUAGGUGGUUUUCCCCUGAUAGUGCUAAGGGGGCUUGGAAGUUUGGACUGGGCAGAGCUCAACACAGCGUGGCAAAGUGGCCGUGGCUAGACUGCCUCUCUGGAUUCCUCGUCACUCAGCAGGGCAUCUCUGAGAGAAAUGCC, the self-cleavage falls from 1.49 to 0.15.

Going from UACGUAGGUGGUUUUCCCCUGAUAGUGCUAAGGGGGCCAGGAAGUUUGGACUGGGCAGAGCUCAACACAGCGUGGCAAAGUGGCUGUGGCUAGACUGCCUCUCUGGAUUCCUCGUCACUCAGCAGGGCAUCUCUGAGAGAUAUGCC to UACGUAGGUGGUUUUCCCCUGAUAGUGCUAAGGGGGCCAGGAAGUUUGGACUGGGCAGAGCUCAACACAGCGUGGCAAAGUGGCUGUGGCUAGACUGCCUCUCUGGAUUCCUCGUCACUCAGCAGGGCAUCUCUGAGAGAGAUGCC, the self-cleavage rises from 1.45 to 1.55.

Going from UACGUAGGUGGUUUUCCCCUGAUAGUGCUAAGGGGGCCAGGAAGUUUGGACUGGGCAGAGCUCAACACAGCGUGGCAAAGUGGCUGUGGCUAGACUGCCUCUCUGGAUUCCUCGUCUCUCAGCAGGGCAUCUCUGAGAGAAAUGCC to UACGUAGGUGGUUUUCCCCUGAUAGUGCUAAGGGGGCCAGGAAGUUUGGACUGGGCAGAGCUCAACACAGCGUGGCAAAGUGGCUGUGGCUAGACUGCCUCUCUGGAUUCCUCGUCACUCAGCAGGGCAUCUCUGAGAGGAAUGCC, the self-cleavage falls from 1.63 to 1.36.

First: UACGUAGGUGGUUUUCCCCUGAUAGUGCUAAGGGGGCCAGGAAGUUUGGGCUGGGCAGAGCUCAACACAGCGUGGCAAAGUGGCUGUGGCUAGACUGCCUCUCUGGAUUCCUCGUCACUCAGCAGGGCAUCUCUGAGAGAAAUGCC
Second: UACGUAGGUGGUUUUCCCCUGAUAGUGCUAAGGGGGCUUGGAAGUUUGGACUGGGCAGAGCUCAACACAGCGUGGCAAAGUGGCUGUGGCUAGACUGCCUCUCUGGAUUCCUCGUCACUCAGCAGGGCAUCUCUGAGAGAAGUGCC
The self-cleavage of the first is lower: 1.29 for the first, 1.4 for the second.

Compared with UACGUAGGUGGUUUUCCCCUGAUAGUGCUAAGGGGGCUUGGAAGUUUGGACUGGGCAGAGCUCAACACAGCGUGGCAAAGUGGCUGUGGCUAGACUGCCUCUCUGGAUUCCUCGUCACUCAGCAGGGCAUCUCUGAGAGAAUUGCC, UACGUAGGUGGUUUUCCCCUGAUAGUGCUAAGGGGGCCAGGUAGUUUGGACUGGGCAGAGCUCAACACAGCGUGGCAAAGUGGCUGUGGCUAGACUGCCUCUCUGGAUUCCUCGUCACUCAGCAGGGCAUCUCUGAGAGAAAUGCC is higher in self-cleavage: 0.32 for the first, 1.35 for the second.

Compared with UACGUAGGUGGUUUUCCCCUGAUAGUGCUAAGGGGGCCAGGGAGUUUGGACUGGGCAGAGCUCAACACAGCGUGGCAAAGUGGCUGUGGCUAGACUGCCUCUCUGGAUUCCUCGUCACUCAGCAGGGCAUCUCUGAGAGAAAUGCC, UACGUAGGUGGUUUUCCCCUGAUAGUGCUAAGGGGGCUUGGAAGUUUGGACUGGGCAGAGCUCAACACAGCGUGGCAAAGUGGCUGUGGCUAGACUGCCUCUCCGGAUUCCUCGUCACUCAGCAGGGCAUCUCUGAGAGAAAUGCC is higher in self-cleavage: 1.21 for the first, 1.71 for the second.

Going from UACGUAGGUGGUUUUCCCCUGAUAGUGCUAAGGGGGCUUGGAAGUUUGGACUGGGCAGAGCUCAACACAGCGUGGCAAAGUGGCUGUGGCUAGACUGCCUCUCUGGAUUCCCCGUCACUCAGCAGGGCAUCUCUGAGAGAAAUGCC to UACGUAGGUGGUUUUCCCCUGAUAGUGCUAAGGGGGCUUGGAAGUUUGGACUGGGCAGAGCUCAACACAGCGUGGCAAAGUGGCUGUGGCUAGACUGCCUUUCUGGAUUCCUCGUCACUCAGCAGGGCAUCUCUGAGAGAAAUGCC, the self-cleavage rises from 1.35 to 1.82.

First: UACGUAGGUGGUUUUCCCCUGAUAGUGCUAAGGGGGCUUGGAAGUUUGGACUGGGCAGAGCUCAACACAGCGUAGCAAAGUGGCUGUGGCUAGACUGCCUCUCUGGAUUCCUCGUCACUCAGCAGGGCAUCUCUGAGAGAAAUGCC
Second: UACGUAGGUGGUUUUCCCCUGAUAGUGCUAAGGGGGCUUGGAAGUUUGGACUGGGCAGAGCUCAACACAGCGUGGCAAAGUGGCUGUGGCUAGACUGCCUCUCUGGAUUCCUCGUCACCCAGCAGGGCAUCUCUGAGAGAAAUGCC
The self-cleavage of the first is lower: 1.27 for the first, 1.47 for the second.

First: UACGUAGGUGGUUUUCCCCUGAUAGUGCUAAGGGGGCUUGGAAGUUUGGACUGGGCAGAGCUCAACACAGCGUGGCAAAGUGGCUGUGGCUAGACUGCCUCUCUGGAUUCCUCGUCACACAGCAGGGCAUCUCUGAGAGAAAUGCC
Second: UACGUAGGUGGUUUUCCCCUGAUAGUGCUAAGGGGGCUUGGAAGUUUGGACUGGGCAGAGCUCAACACAGCGUGGCAAAGUGGCUGUGGCUAGACUGCCCCUCUGGAUUCCUCGUCACUCAGCAGGGCAUCUCUGAGAGAAAUGCC
The self-cleavage of the first is lower: 1.24 for the first, 1.9 for the second.

Compared with UACGUAGGUGGUUUUCCCCUGAUAGUGCUAAGGGGGCUUGGAAGUUUGGACUGGGCAGAGCUCAACACAGCGUGGCAAAGUGGGUGUGGCUAGACUGCCUCUCUGGAUUCCUCGUCACUCAGCAGGGCAUCUCUGAGAGAAAUGCC, UACGUAGGUGGUUUUCCCCUGAUAGUGCUAAGGGGGCUUGGAAGUUUGGACUGGGCAGAGCUCAACACAGCGUGGCAAAGUGGCUGUGGCUAGACUGGCUCUCUGGAUUCCUCGUCACUCAGCAGGGCAUCUCUGAGAGAAAUGCC is higher in self-cleavage: 0.09 for the first, 0.12 for the second.

Compared with UACGUAGGUGGUUUUCCCCUGAUAGUGCUAAGGGGGCUUGGAAGUUUGGACCGGGCAGAGCUCAACACAGCGUGGCAAAGUGGCUGUGGCUAGACUGCCUCUCUGGAUUCCUCGUCACUCAGCAGGGCAUCUCUGAGAGAAAUGCC, UACGUAGGUGGUUUUCCCCUGAUAGUGCUAAGGGGGCUUGGAAGUUUGGACAGGGCAGAGCUCAACACAGCGUGGCAAAGUGGCUGUGGCUAGACUGCCUCUCUGGAUUCCUCGUCACUCAGCAGGGCAUCUCUGAGAGAAAUGCC is lower in self-cleavage: 1.44 for the first, 1.25 for the second.

First: UACGUAGGUGGUUUUCCCCUGAUAGUGCUAAGGGGGCUUGGAAGUUUGGACUGGGCAGAGCUCAACACAGCGUGGCAAAGUGGCUGUGGCUAGACUGCCUCUCUGGAUUCCUCGUCACUCAGCAGGGCAUCUCAGAGAGAAAUGCC
Second: UACGUAGGUGGUUUUCCCCUGAUAGUGCUAAGGGGGCUUGGAAGUUUGGACUGGGCAGAGCUCAACACAGCGCGGCAAAGUGGCUGUGGCUAGACUGCCUCUCUGGAUUCCUCGUCACUCAGCAGGGCAUCUCUGAGAGAAAUGCC
The self-cleavage of the first is lower: 1.23 for the first, 1.76 for the second.

UACGUAGGUGGUUUUCCCCUGAUAGUGCUAAGGGGGCCAGGAAGUUUGGACUGGGCAGAGCUCAACACAGCGUGGCAAGGUGGCUGUGGCUAGACUGCCUCUCUGGAUUCCUCGUCACUCAGCAGGGCAUCUCUGAGAGAAAUGCC gave a self-cleavage of 1.35.
